Test: soluble on expression in E. coli; label from the status in PepcDB or PDB records

Row | Sequence | soluble on expression in E. coli
1 | MPEQAQTRRVFLFLQGPHGPFFHALGRMLRAAGAEVWRVGFNAGDRAFWFHPPSFIPYKGAHEDWPQAFADLLERKGVTDIVLYGDTRPIHASAVAAAKARGLGVHVFEEGYLRPYWVTYEREGSNGNSRLMDMTLEEMRAALALSDLETPLPPSHWGDMRQHIFYGALYHWFVMFTNQGYRRFKPHRDLPVTKEFQLYLQRLLLMPALAVERMLATARIRNGGFPYHLALLQLEHDSSFQQHSPFSTMTDFLEEIFDGFARGAPQHHHLVVKAHPLENGRVPLRREVRRLARQHGLEGRVHYVRGGKLAQLLNDARSAVTVNSTAGQQVLWRGIPLKVFGRAVYDKPEFVSTQTASEFFAAANRPDARAYKEYRRYLLETSQLPGGFYSRKGRRQLLRQVVDMMLSPDDPYDALKSGKAAPRQQLRLVN | not soluble
2 | MPFAIGQRWLSESENALGLGVITALDQRTVTIYFPAADETRIYAMAQAPLSRIVFSKGETLSHQAGWQGEILDVQNMNGLLFYLVKNPQDEDVIVQERDISPIISFSQAKDRLFSAQIDRSTHFALRY | not soluble
3 | MPGKLTATILTRNEAANIGDCIDSLAQLADEVIVLDSGSTDATRDIARARGANVIEDDGPWPGFGPQKNRALDRATGEWVLSIDADERVPPELAQEIRTAMARADADAYAIPRLSQFCGAWVHHSGWRPDHVIRLFRRGKARFSENLVHESLQVTGNVARLRTSLLHYSYTSMDQVHRKSAQYAEAGARDLTQRGKHIGALSPVLHGTWAFVRTLVLRRGFLDGGTGLAIARMNATVSYRKYRRARELASGANHRPLEHHHHHH | not soluble
4 | MPGTPIPMGRQTHRAHSASGFYTPHVSKLKTNYDREFQKFLRSAKTAIDHLDKIEMQILCPLKKKIKRFHKESNTLDVYFRSQTYWRSFYKELMNRSDDVMDCFRFEDLRDVAAVVESHRLPDVLVSFVTQQLMEWRELFKDVEWMRKFRELSHNMDSLKTKRIEHVLRQDIIREIGVAIDVHNLKIDDFRSHSNNTERVAEGIAHAIEESKNKQDAGNQLKHVPVLSKQMSVRRWYREHYGDPQALSDESDEESLSDGDNSSLFVGTADSSSRDASDISTEEVVTENEFDEFFN | not soluble
5 | MPHILNVTVPIPETHVLITKDEYDELIGYSLDPVWNMSDLKKKLKIASDETIKDRLLFHPRFEKELRAQGIVHYPDENFNRWRFNARKMNKFVDEHFNEIYKERIKLEHHHHHH | not soluble
6 | MPHPTHCRSANAVFRARMEFGLLEAPVSFSTLMDKRERGSFDSQFLIAMPGLDDGNFARSVIYICAHSDAGAMGFIINRPQQITFTDILLHLKLVDSNDAIMLPNRTREFPIQCGGPVESGRGFVLHSDDYLSESSIPVSDDISLTATLDIVRAISNGRGPQKATMMLGYAGWGPGQLENEIANNGWLNCPAAEELIFDRGLDNKYERALALMGVDARMLSTDAGHALEHHHHHH | soluble
7 | MPHSYPALSAEQKKELSDIALRIVAPGKGILAADESVGSMAKRLSQIGVENTEENRRLYRQVLFSADDRVKKCIGGVIFFHETLYQKDDNGVPFVRTIQDKGIVVGIKVDKGVVPLAGTDGETTTQGLDGLSERCAQYKKDGADFAKWRCVLKISERTPSALAILENANVLARYASICQQNGIVPIVEPEILPDGDHDLKRCQYVTEKVLAAVYKALSDHHVYLEGTLLKPNMVTPGHACPIKYTPEEIAMATVTALRRTVPPAVPGVTFLSGGQSEEEASFNLNAINRCPLPRPWALTFSYGRALQASALNAWRGQRDNAGAATEEFIKRAEVNGLAAQGKYEGSGEDGGAAAQSLYIANHAYL | soluble
8 | MPIEATMSTSNESANLLVPSFLPRGEVLGWNLTSVVNPVTRRKEYTYTVCVQTVGAFQCTEQAGVVLVKCDGPCGNKLPTNHLIALGKCDHMLCKACFGIVKNPDGSYGCSNFYCWSEPRGNFRKEKANYNKVINKQICRARKFKQDGEDLQACSKSNLPKTPADLSDREMNSAKSSESDTSSSDGSSYQSTVDSYGLPKRF | not soluble
9 | MPIKSKANEVPKEEAGVKKETPKVARKATKKDTPKELKDKENAGDDNTPKQTKGRPGRPAAKRKNLDTPDVTEKLAMEEENPPKRRSSRLTRSTRSMAEDGSPSPEKEKPEKLPFIKYKGAIKYFTESQDIAASADDVLQWVEKQKDEVVPMAFDMEWPFSFQTGPGKSAVIQICVDEKCCYIYQLTNVKKLPAALVALINHPKVRLHGVNIKNDFRKLARDFPEVTAEPLIEKCVDLGLWCNEVCETGGRWSLERLTNFIAKKAMDKSKKVRMSKWHVIPLDENQLMYAAIDVYIGQVIYRELERREKVKIKNEEEFKEKNGDAAFKAMKALGETFLTKINEVTLLEHHHHHH | soluble
10 | MPILQELRLGKRISRDISLADLYQEWIELKILPSSRSEETKKKYLLRKNTIERLFGNKKVTQIRASEYQRIMNKYGQTVGRNFLGRLNTGIHQSIQMAIADKVLIDDFTQHVELFSSKLEHHHHHH | soluble
11 | MPIRSNPFFNMDSSALLSLLRHTGTSMDSKSSKKSSGSIGGGVLKMFKLIPMLSSGCKMVNLLSRGHRRPLLKDYATTGTIFGFRKGRVFLAIQEDPHCLPIFIIELPMLTSALQKEMASETVRIALESETKTSRKKVLEEYVWGIYCNGRKIGYSIRRKNMSEEEMYVIDALRGVSMGAGVLPCKNQYDQETEGEMTYMRARFDRVIGSKDSEALYMINPEGSGQGTELSIYFLRSH | soluble
12 | MPKAVAVLFFLLFTSLSYAESAFDIVQKSDQAMRGKSSYSEATMEIVRPDWTRSMTMKSWTKGTELSLVLVTAPAKDKGSASLKRHREMWNWVPSIERVIKIAPSMLSQSWMGSDFTNDDLINQSSIVVDYQHALLGNDSFEGDKVWVIEATAKPDAPVVWNKVTLWISQSTYLQRKVEFYDEFDERVNVLTTYDVKELGGRKIATRMEMKPVDKPGNKTIFTTHQAQFDFDINDDFFSQQQMKSLRD | not soluble
13 | MPKIAKSDRLENVAFEYIKNKITTGEYPTGYRVVEAKLSQELNMSRTPIRRAIINLCHSGFLVHQYNRGAFVQNTEVTITEFFSRMKLVELLVYESTEKLALREDYIVVDDIIEIAEKVIQYEKNREYELMRGAFEDFISTFIGKLNNDYFNRVIQDLWNEINDNATKEVRLIIVSASDRIAEELAHMIEILKSWNYEQLKKCFQHIMNAMILIAF | not soluble
14 | MPKIYTKTGDKGFSSTFTGERRPKDDQVFEAVGTTDELSSAIGFALELVTEKGHTFAEELQKIQCTLQDVGSALATPCSSAREAHLKYTTFKAGPILELEQWIDKYTSQLPPLTAFILPSGGKISSALHFCRAVCRRAERRVVPLVQMGETDANVAKFLNRLSDYLFTLARYAAMKEGNQEKIYMKNDPSAESEGL | soluble
15 | MPKRAVSFADDIETRVFKRDKREIEDGILDIPMEEDVVKERPGNADEDEEEKKKFHTLESDEEEEEDHKRLDTRRVEGQEDCGVDFDGSIKITAFNMKEDEEEGHFDETGNFIFDKKTKDVQDAWLDGIDWSLVKKKAGDQWEGDEDKKSLEDEEPEPITMSDARKKEIFEQLVNLLKPNQTVAKALSELKKKKGLSAAEERKLRWAAKKAGKSFEPTDGQKETSQLSGLADELISAGIMDAYEWHREKFNFQLQKMISTAADELDMFSDEPTSTGAARAAGAPMEQEEEEADDSVKWEYKANEEAKIEVEYEKTDDFGEIRVNKIGPIPTSEMMDRQSKGLLSAEGVARRSGTNGHFNPVARIDFELYL | soluble
16 | MPKRGLDVSSCEIFRFYKLITTKSLIEPVSMIVPRRSESYQEDIYPPTAAAQPSLTAHEWLSGMNRGKGGWEQAARLGNWSPGGPK | not soluble
17 | MPKRKLKTPESTETTKICKKNDNFSDFWSEKLDEIGSAHLADTKSRTKSAVKHELTGIGSSSIYKGTRDLQLPKSEDLSNFGWNEGVLEHLQVLLEEIEVDEKKEEQIEAERGAILKFTAEYRDLLAITGDQGGYRSIYCAHIIQHLIRNKNLIIGNKRKLEIASTQEGGADEETIESCRDSGFVRPVVLVLCAFKKDAYDIINRLRRILHGDDEGKSEVWNKNRFEEEYSGPTELPTTRADFPDDHKELLLGNNDDAFRIGLAISKKVLKLYEKFEKADILVCSPLGLRMILNGDDGNEAHLISSINMTIVDRTDIMLQQNWENLQLIFSHLHSQPSKIDVDISRVRKLYLDGQSRHFSQLLMFSRYSHELFTSLMLQNSQNHRGLVIAKPKQSGTLSNIEIPLCQELHKFEVKDPNETSDLRFKYFVDKIMPSLIPRTLIVIPSYFDFVRVRNHLKKAEESFVMCHEYATRAKVDRAREMFFHERKSYLVVTERWYFFNRRHLTGVHRVVFYQLPSHPLFYSEFINMSDAETSQRFLAVLLLCKYDRIRLENTFGTEMAAAVMSNKQAVQAIVSQ | not soluble
